Results published in patent publication US20250049935.

Experiments:
[1] = molecular target: alpha thrombin (Homo sapiens) (UniProt P00734+P00734); assay: MST; details: two HD1 aptamers flanking a poly(serinol phosphodiester) backbone of 30 amine-serinol units (X), grafted with 10 kDa PEG side chains; 20 mM HEPES pH 7.4, 150 mM NaCl, 2 mM CaCl2, 0.05% Tween; 10 nM thrombin
[2] = molecular target: thrombin (in C57BL/6 mouse plasma) (Mus musculus) (UniProt P19221+P19221); assay: inhibition; details: two HD1 aptamers flanking a poly(serinol phosphodiester) backbone of 30 amine-serinol units (X), grafted with 10 kDa PEG side chains; in vivo i.v. 15 nmol in C57BL/6 mice; also 3-fold PT; neutralized by LNA antidote
[3] = molecular target: thrombin (in pooled normal plasma) (Homo sapiens) (UniProt P00734+P00734); assay: inhibition; details: two HD1 aptamers flanking a poly(serinol phosphodiester) backbone of 30 amine-serinol units (X), grafted with 10 kDa PEG side chains; 5 uM in human plasma; almost three-fold longer clotting; reversed by LNA antidote
[4] = molecular target: DNase I (UniProt P00639); assay: cleavage_in_vitro; details: 10 mM Tris-HCl pH 7.5, 2.5 mM MgCl2, 0.5 mM CaCl2, 100 nM DNA, 0.6 unit/mL
Chain of DNase I (P00639 23-282): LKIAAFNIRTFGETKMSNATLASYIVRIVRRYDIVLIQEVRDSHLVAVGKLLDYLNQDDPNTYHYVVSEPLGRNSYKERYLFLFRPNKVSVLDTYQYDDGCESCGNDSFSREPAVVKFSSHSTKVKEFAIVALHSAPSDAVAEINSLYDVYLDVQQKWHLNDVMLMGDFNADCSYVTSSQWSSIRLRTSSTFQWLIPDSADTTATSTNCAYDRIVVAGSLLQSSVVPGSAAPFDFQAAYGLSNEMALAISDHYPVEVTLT

GGTTGGTGTGGTTGGTTTTTNNNNNNNNNNNNNNNNNNNNNNNNNNNNNNTTTTTGGTTGGTGTGGTTGG [PSP pacHD1]
Kd [1]: 6.9 nM | activity (fold aPTT vs blank) [2]: 5 | activity (fold aPTT vs vehicle) [3]: 3

NNNNNNNNNNNNNNNTTTTTTTTTTTTTTT / AAAAAAAAAAAAAAA [Doubler PSP pacDNA:dA15 duplex]
activity ([4]; symmetric doubler with two 15-unit poly(serinol phosphodiester) arms grafted with 10 kDa PEG): 38.1 min

TTTTTTTTTTTTTTT (double strand) [dT15:dA15 duplex]
activity [4]: 13.9 min

TTTTTTTTTTTTTTTNNNNNNNNNNNNNNNNNNNNNNNNNNNNNNTTTTTTTTTTTTTTT / AAAAAAAAAAAAAAA [PSP pacDNA:dA15 duplex]
activity ([4]; poly(serinol phosphodiester) backbone of 30 units grafted with 10 kDa PEG): 32.2 min
